Test results from the supplement of paper PMC11865577.

test system: TO-3-N3 (biotin conjugate); test: pull-down binding Z-score (relative to library population); higher = stronger binding; conditions: RNA library: Library-2
In short: (§1)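 Streptavidin beads with 100 pmol of biotin-conjugated small molecule were incubated for 60 min at 25 °C with 1 μg of heat-folded Cy5- or Cy3-end-labelled RNA library in phosphate/NaCl/KCl buffer. Bound RNA was eluted in hot SDS after three washes and hybridised to a DNA barcode microarray at 55.5 °C for 20 h. Each binding score is a library-referenced Z-score, computed after beads-only subtraction and a trimmed mean of barcoded replicate probes.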

Row | Sequence | pull-down binding Z-score
1 | AGAACAUUCGUUCACUUUCCU [hsa-mir-6747] | -0.352
2 | AGAACUUUGGUUUU [hsa-mir-4434] | -0.711
3 | AGAAGAACU [hsa-mir-378j] | -0.279
4 | AGAAGACCU [hsa-mir-378g] | 0.421
5 | AGAAGCCCAGGUUCUGAAUCCCCU [hsa-mir-6734] | 0.393
6 | AGAAGCUAAAGUGUAGAUCAAACGCAUAAUGGCUGA [hsa-mir-4500] | 0.197
7 | AGAAGGCCUAUGGUGAUUUGCAUUCUU [hsa-mir-6875] | -0.099
8 | AGAAUUACUUAUCUGAGCCAAAGUAAUUCA [hsa-mir-1297] | 0.332
9 | AGACAGCCUGAGUUGGAGGCUCAUCUUCACUUCUUGCUGUGU [hsa-mir-3168] | 0.0963
10 | AGACCUUCCUUCCUUGUCU [hsa-mir-3163] | -0.452
11 | AGACUCUGGAUUUUACACUUGGAGUG [hsa-mir-887] | -0.461
12 | AGAGAUGAGCAUAAAGUUUUU [hsa-mir-6086] | 0.0616
13 | AGAGCACCUCCUAGAGAAUGUUGAACUAAAGGUGCCC [hsa-mir-4723] | 0.573
14 | AGAGCGUGGGCUGGGGUUCAGGGACACCCUCU [hsa-mir-1229] | 1.15
15 | AGAGGCUGUGGGCAGGGGGAGAUGUGAAGGAAAGAACUAGGACCCAUUCAUCCACU [hsa-mir-6807] | 2.51
16 | AGAGUCCUGUUGUUGUAAGAUAGUGUCU [hsa-mir-550a-3] | -0.56
17 | AGAUAGUGAAGUAGAUUAGCAUCUACU [hsa-mir-18a] | -0.484
18 | AGAUAUAUAUAUACCUCAUAUGUAUAUGGUAUAC [hsa-mir-4777] | -1.2

Row | Sequence | pull-down binding Z-score
19 | AGAUCACUUUUCUGCACUGGACAGUGAUCU [hsa-mir-3686] | -0.65
20 | AGAUCCCCUGUUAGAGACGGGCC [hsa-mir-6840] | 0.114
21 | AGAUCCUGUCUUUCGUAAUCAGCAGCU [hsa-mir-222] | 0.279
22 | AGAUCUAUGUCAUAUAUACAGAUAU [hsa-mir-3924] | 0.902
23 | AGAUCUGUCUCUGAUUGUUUCCAAGAUCU [hsa-mir-6888] | 0.132
24 | AGAUGAAAUGCCUUUGAUUU [hsa-mir-3658] | -0.497
25 | AGAUGAGGGUGUCGGAUCAACU [hsa-mir-193a] | 0.135
26 | AGAUGAGUUUAUGUUUUAUCCAACU [hsa-mir-193b] | -0.608
27 | AGAUGUGUUUCCAUUCCACUAUCAUAAU [hsa-mir-365a] | -0.141
28 | AGCAAGGUGCGUCGUAUCUUGCU [hsa-mir-4804] | -0.499
29 | AGCACUUUCUGUUGUCUGAAAGAAAAGAAAGUGCU [hsa-mir-516a-1_516a-2] | 0.399
30 | AGCACUUUCUGUUUUGUGAAAGAAAAGAAAGUGCU [hsa-mir-516b-1] | -0.893
31 | AGCACUUUGUGUUUUGUGAAAGAAAGUGCU [hsa-mir-516b-2] | -0.647
32 | AGCAGUACCAGACGGUUCUGUGG [hsa-mir-3198-1] | -0.321
33 | AGCAGUACCAGAUGGUUCUGUGG [hsa-mir-3198-2] | -0.0816
34 | AGCAUCUGAAUGGGUACAGUUGUUGU [hsa-mir-6818] | 0.0263
35 | AGCAUGCACUUAAUGUGGGUGUAUGU [hsa-mir-668] | 0.334
36 | AGCCAAAAUCACCAGGGA [hsa-mir-4534] | -0.0499

test system: TO-N3-2 (biotin conjugate); test: as above; conditions: RNA library: Library-2
In short: as §1

Row | Sequence | pull-down binding Z-score
37 | ACCACUGUGAAGACAGUAAAAUGUACAGUGGU [hsa-mir-597] | -1.1
38 | ACCAUAGUCAUAAGUUAGGAGAUGUUAGAGCUGUGAGU [hsa-mir-4286] | 0.807
39 | ACCAUAUCUAAGCUAAUGUGGUGGU [hsa-mir-876] | -0.259
40 | ACCCAGGACUCUUUCAUGACCA [hsa-mir-665] | 0.384
41 | ACCCGGGUGGUGGAGGUUGCAGUGAGCCAAGAUUGCGCCACUGCACUCCAGCCUGGGC [hsa-mir-1273a] | 1.66
42 | ACCCUGCAGCCCCAGCUGGAGGAUGAGGAGAUGCUGGGCUUGGGU [hsa-mir-4313] | 2.93
43 | ACCUAACACACUGCCUUUUAUGUGGUAGGU [hsa-mir-5094] | -1.14
44 | ACCUCCUGGCUUUUCCUCUGCAGCAUGGCUCGGACCUAGUGCAAUGUUUAAGCU [hsa-mir-6826] | 0.769
45 | ACCUGUGUGUGCCCAAGUGUUUCUAGCAAACACAGGG [hsa-mir-3649] | 0.193
46 | ACCUUCCAAGGCUCAGAAGGU [hsa-mir-4650-1_4650-2] | -0.0713
47 | ACGAGAGUGAGUAGCAGGUCUC [hsa-mir-128-2] | 1.51
48 | ACGAUAUAGGUAUGUAUGUAUGUAUGUAUAAAAGCAGGGCAGUAUAUAUAUCGU [hsa-mir-4536-2] | 0.482
49 | ACGAUAUAUAUACUGCCCUGCUUUUAUACAUACAUACAUACAUACCUAUAUCGU [hsa-mir-4536-1] | -0.809
50 | ACGCGCUGUGACACUUCAAACUCGU [hsa-mir-126] | 0.424
51 | ACGUCCAGUGGUGCAGAGGUAAUGGACGU [hsa-mir-1306] | 1.37
52 | ACGUCUGGCCGCGUGCGCAUGU [hsa-mir-3175] | 1.89
53 | ACGUGACCUCCUGGGCCUG [hsa-mir-6770-1_6770-3_6770-2] | 1
54 | ACUAAUUUUUCCACUAGUUAGU [hsa-mir-4424] | -1.16
55 | ACUACUAUAGGCCGCUGGGAAGCAGU [hsa-mir-130b] | 0.667
56 | ACUACUGUACUUUACAGCUAGCAGU [hsa-mir-301a] | 1.09
57 | ACUACUGUGCUCUGAGAAGCAGU [hsa-mir-301b] | 0.325
58 | ACUAGAUUUGAAUCCAGACCUUUAGU [hsa-mir-5584] | -0.111
59 | ACUCCCAGAACUCAUUAAGUUGGUAGU [hsa-mir-1278] | -0.482
60 | ACUCCUAGGUCACGGAAGU [hsa-mir-6838] | -0.0545
61 | ACUGAACCAGCUUCAAACAAGUUCACU [hsa-mir-653] | -0.00579
62 | ACUUAAGCACCAGGUAAAAUCUGGUGCUUAAGU [hsa-mir-4720] | -1.69
63 | ACUUCAGAUGCUUCAUGACA [hsa-mir-6865] | -0.0136

Row | Sequence | pull-down binding Z-score
64 | ACUUUCACCAGAGAGCAGAAAGU [hsa-mir-371b] | -0.356
65 | ACUUUCUGGUGCCAGAAUGAAAGU [hsa-mir-512-2_512-1] | 0.129
66 | ACUUUCUGUUUGAAAGAAAACAAAGU [hsa-mir-519e] | -0.767
67 | ACUUUUUUUUUUUUUUUUUUUAAUGUUAAAAGU [hsa-mir-5588] | -0.107
68 | AGAAAAUUUUUCUCCAAAGUUUUCU [hsa-mir-4659b] | -1.66
69 | AGAAACCUACUUAUUACAUAGUUUACAUAAGAAGCGUGAU [hsa-mir-1322] | -0.00549
70 | AGAAAGUGAAACACUAUUUUAGGUUUU [hsa-mir-4458] | -0.248
71 | AGAAAUCAAGCUAUUUGCUAAAAGUUCU [hsa-mir-6844] | -0.0563
72 | AGAACAGAUAUAUCCACAGUACACUUGGCUGUUCU [hsa-mir-4753] | -0.635
73 | AGAACAUUCGUUCACUUUCCU [hsa-mir-6747] | -0.376
74 | AGAACUUUGGUUUU [hsa-mir-4434] | -1.38
75 | AGAAGAACU [hsa-mir-378j] | -0.277
76 | AGAAGACCU [hsa-mir-378g] | 0.244
77 | AGAAGCCCAGGUUCUGAAUCCCCU [hsa-mir-6734] | 0.901
78 | AGAAGCUAAAGUGUAGAUCAAACGCAUAAUGGCUGA [hsa-mir-4500] | 0.233
79 | AGAAGGCCUAUGGUGAUUUGCAUUCUU [hsa-mir-6875] | -0.105
80 | AGAAUUACUUAUCUGAGCCAAAGUAAUUCA [hsa-mir-1297] | -0.336
81 | AGACAGCCUGAGUUGGAGGCUCAUCUUCACUUCUUGCUGUGU [hsa-mir-3168] | 0.168
82 | AGACCUUCCUUCCUUGUCU [hsa-mir-3163] | -0.35
83 | AGACUCUGGAUUUUACACUUGGAGUG [hsa-mir-887] | -0.0223
84 | AGAGAUGAGCAUAAAGUUUUU [hsa-mir-6086] | -0.389
85 | AGAGCACCUCCUAGAGAAUGUUGAACUAAAGGUGCCC [hsa-mir-4723] | 1.16
86 | AGAGCGUGGGCUGGGGUUCAGGGACACCCUCU [hsa-mir-1229] | 1.86
87 | AGAGGCUGUGGGCAGGGGGAGAUGUGAAGGAAAGAACUAGGACCCAUUCAUCCACU [hsa-mir-6807] | 2.79
88 | AGAGUCCUGUUGUUGUAAGAUAGUGUCU [hsa-mir-550a-3] | -0.0681
89 | AGAUAGUGAAGUAGAUUAGCAUCUACU [hsa-mir-18a] | 0.0251
90 | AGAUAUAUAUAUACCUCAUAUGUAUAUGGUAUAC [hsa-mir-4777] | -0.944
